Reference: publication PMC9666519

Experiments:
[1] = molecular target: 20S proteasome core particle of Vairimorpha necatrix (Vairimorpha necatrix (endogenous in spores)); test: cryo-EM structure; 26S proteasomes from germinated sporoplasms, purified with 20 mM ATP; 8.3 Å map without symmetry, AlphaFold models of the RP subunits docked as rigid bodies
[2] = molecular target: 20S proteasome core particle of Vairimorpha necatrix (Vairimorpha necatrix (endogenous in spores)); test: cryo-EM structure; proteasomes from dormant V. necatrix spores, bead-beaten without ATP, lysate on Superose 6 Increase in 50 mM Tris pH 7.4, 300 mM NaCl, 5 mM DTT; 2.8 Å map of the 20S CP, C2 symmetry

percent of proteasome particles capped by RP [1] | percent of proteasome particles capped by RP on both ends [1] | stoichiometry N (PI31L per 20S core particle) [2] | Substance
12% | 1.5% | – | 19S regulatory particle of the Vairimorpha necatrix proteasome (complex)
– | – | 2 | PI31-like protein (PI31L) of Vairimorpha necatrix (natural protein)
